No end group written: not given here. *: point of attachment. Biotin = O=C1N[C@H]2[C@H](CS[C@H]2CCCCC(=O)*)N1
Legend:
Assay in all cases: […]
SARS-CoV-2 S2 peptide 42 = molecular target: T1, SARS-CoV-2 S2 peptide 42 (SARS-CoV-2 Wuhan-Hu-1, UniProt P0DTC2)
T1 chain: Biotin-PSKPSKRSFIEDLLF

SARS-CoV-2 S2 peptide 44 = molecular target: T2, SARS-CoV-2 S2 peptide 44 (SARS-CoV-2 Wuhan-Hu-1, UniProt P0DTC2)
T2 chain: Biotin-RSFIEDLLFNKVTLA

SARS-CoV-2 S2 peptide 43 = molecular target: T3, SARS-CoV-2 S2 peptide 43 (SARS-CoV-2 Wuhan-Hu-1, UniProt P0DTC2)
T3 chain: Biotin-PSKRSFIEDLLFNKV

Measured: binding result

B1: COV44-62 (antibody, V domains shown)
VH: QMQLMQSGAEVKKPGASVTVSCKASGDTFSDYRIHWVRQAPGQGLEWMGRMNPKSGDTNFAQKFQGRVTMTRDMSINTAYMTLSGLTFDDTALYYCASLLIVGGFDPLDDFEVWGQGTMVTISS
VL: QSALTQPPSASGSPGQSVTISCSGTSSDVGGYNFVSWYQHHPGKAPKILIYEVTKRPSGVPDRFSGSKSGNTASLTVSGLQAEDEADYYCSSYGGTNNLLFGGGTKLTVL
binds: SARS-CoV-2 S2 peptide 42 | SARS-CoV-2 S2 peptide 44 | SARS-CoV-2 S2 peptide 43

B2: COV44-79 (antibody, V domains shown)
VH: QVQLVESGGGVVQPGRSLRLSCAASGLTFSGYAMHWVRQAPGKGLEWVAVISRDARNKYYADSVKGRFTISRDNSKKTVYLEMNSLRVEDTAVYYCAILIIPGITEPGSPDALDIWGQGTMVSVSS
VL: DIQMTQSPSSMSASVGDRVTITCRASQDISKWLAWYQQRPGKAPKLLIYAASSLQSGVPSRFSGSGSGTDFTLTISSLQPEDFATYYCQQASSFPWSITFGQGTRLEIR
binds: SARS-CoV-2 S2 peptide 42 | SARS-CoV-2 S2 peptide 44 | SARS-CoV-2 S2 peptide 43

Reference: article PMC9016638 (bioRxiv, 2022)
